Measurements taken from patent US20170088631A1 (Hoffmann-La Roche, published 2017).

Columns and labels:
[1] = biological target: T1, human Fibroblast Activation Protein (FAP), recombinant (human, UniProt Q12884 27-760); assay: SPR (Biacore), His-tagged human FAP captured by anti-His antibody, antibody as analyte, 25 C; apparent bivalent affinity (avidity), 1:1 fit
T1 construct: they are treated as one molecule; also called Hu FAP; huFAP
Protocol: The FAP binding activity of the IgG-IL-2 qm immunoconjugates based on 4G8 and 28H1 anti-FAP antibodies were determined by surface plasmon resonance (SPR) on a Biacore machine in comparison to the corresponding unmodified IgG antibodies. […] Temperature was 25° C. and HBS-EP was used as buffer. Analyte concentration was 50 nM down to 0.05 nM at a flow rate of 50 μl/min (association: 300 s, dissociation: 900 s, regeneration: 60 s with 10 mM glycine pH 2). Fitting was performed based on a 1:1 binding model, RI=0, Rmax=local (because of capture format).

[2] = biological target: T1, human Fibroblast Activation Protein …; assay: SPR (ProteOn XPR36), GLM chip, huFAP as ligand by amine coupling (500 RU), construct as analyte, 1:1 global fit
[3] = biological target: T2, human A2 domain of Tenascin-C (TNC A2), recombinant (human, UniProt P24821 1167-1256, limits assumed, biotinylated via a C-terminal avi-tag (Example 5)); assay: SPR (ProteOn XPR36), NLC chip, biotinylated TNC A2 as ligand (250 RU), construct as analyte, 1:1 global fit; human TNC A2 as ligand
T2 construct: domain: A2 domain of Tenascin-C; also called human TNC A2
T2 sequence (looked up): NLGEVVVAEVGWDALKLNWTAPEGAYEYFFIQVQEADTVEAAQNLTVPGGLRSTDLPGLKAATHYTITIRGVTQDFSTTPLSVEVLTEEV

T1 sequence (Q12884 27-760 limits assumed): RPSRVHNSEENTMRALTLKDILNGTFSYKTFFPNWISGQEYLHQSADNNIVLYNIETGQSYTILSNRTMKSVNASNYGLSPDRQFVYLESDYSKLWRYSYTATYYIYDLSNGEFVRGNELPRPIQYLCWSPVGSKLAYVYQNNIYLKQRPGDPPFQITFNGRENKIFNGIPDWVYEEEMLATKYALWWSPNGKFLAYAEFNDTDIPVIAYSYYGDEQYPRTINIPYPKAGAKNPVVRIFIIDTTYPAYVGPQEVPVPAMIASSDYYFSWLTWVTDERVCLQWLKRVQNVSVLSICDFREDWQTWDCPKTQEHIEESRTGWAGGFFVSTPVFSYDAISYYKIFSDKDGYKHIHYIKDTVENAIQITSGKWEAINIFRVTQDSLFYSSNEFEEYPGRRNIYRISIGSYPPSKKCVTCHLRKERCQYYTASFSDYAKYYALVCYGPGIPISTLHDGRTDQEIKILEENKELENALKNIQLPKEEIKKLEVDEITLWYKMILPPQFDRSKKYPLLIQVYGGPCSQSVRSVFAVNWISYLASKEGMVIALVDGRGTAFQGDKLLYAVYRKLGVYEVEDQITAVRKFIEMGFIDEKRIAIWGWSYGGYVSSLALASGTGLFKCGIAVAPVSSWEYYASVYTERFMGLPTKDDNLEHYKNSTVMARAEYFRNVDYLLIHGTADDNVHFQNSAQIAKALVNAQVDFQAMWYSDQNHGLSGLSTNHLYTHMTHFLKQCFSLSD

B1: 4G8 IgG (unmodified anti-FAP antibody) (antibody, V domains shown)
VH: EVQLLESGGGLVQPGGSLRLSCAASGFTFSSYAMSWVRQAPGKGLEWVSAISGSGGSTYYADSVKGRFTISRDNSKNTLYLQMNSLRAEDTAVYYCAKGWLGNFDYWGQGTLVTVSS
VL: EIVLTQSPGTLSLSPGERATLSCRASQSVSRSYLAWYQQKPGQAPRLLIIGASTRATGIPDRFSGSGSGTDFTLTISRLEPEDFAVYYCQQGQVIPPTFGQGTKVEIK
B1 was tested, and the Kd [1] was 0.05 nM.

B2: 28H1 IgG (unmodified anti-FAP antibody) (antibody, V domains shown)
VH: EVQLLESGGGLVQPGGSLRLSCAASGFTFSSHAMSWVRQAPGKGLEWVSAIWASGEQYYADSVKGRFTISRDNSKNTLYLQMNSLRAEDTAVYYCAKGWLGNFDYWGQGTLVTVSS
VL: EIVLTQSPGTLSLSPGERATLSCRASQSVSRSYLAWYQQKPGQAPRLLIIGASTRATGIPDRFSGSGSGTDFTLTISRLEPEDFAVYYCQQGQVIPPTFGQGTKVEIK
notes: Corresponding unmodified IgG of the 28H1 immunoconjugate
In the case of B2, the Kd [1] is reported as 0.2 nM.

B3: FAP-targeted 4G8-based IgG-IL-10 immunoconjugate with monomeric IL-10 (IL-10M1) (other)
heavy 1: not shown
heavy 2: not shown
light: EVQLLESGGGLVQPGGSLRLSCAASGFTFSRYGMSWVRQAPGKGLEWVSAISGSGGSTYYADSVKGRFTISRDNSKNTLYLQMNSLRAEDTAVYYCAKAHNAFDYWGQGTLVTVSSASTKGPSVFPLAPSSKSTSGGTAALGCLVKDYFPEPVTVSWNSGALTSGVHTFPAVLQSSGLYSLSSVVTVPSSSLGTQTYICNVNHKPSNTKVDKKVEPKSCDSSSSGSSSSGSSSSGAPASSSTKKTQLQLEHLLLDLQMILNGINNYKNPKLTRMLTAKFAMPKKATELKHLQCLEEELKPLEEVLNGAQSKNFHLRPRDLISNINVIVLELKGSETTFMCEYADETATIVEFLNRWITFAQSIISTLTSGGGGSGGGGSGGGGEVQLLESGGGLVQPGGSLRLSCAASGFTFSRYGMSWVRQAPGKGLEWVSAISGSGGSTYYADSVKGRFTISRDNSKNTLYLQMNSLRAEDTAVYYCAKAHNAFDYWGQGTLVTVSSASTKGPSVFPLAPSSKSTSGGTAALGCLVKDYFPEPVTVSWNSGALTSGVHTFPAVLQSSGLYSLSSVVTVPSSSLGTQTYICNVNHKPSNTKVDKKVEPKSCD
notes: P329G LALA in the Fc; also called 4G8 IgG-IL-10M1; FAP 4G8 IgG-IL-10M1
B3 was tested, and the Kd [2] was 0.026 nM, the koff [2] was 1.75e-05 s⁻¹ and the kon [2] was 668000 M⁻¹ s⁻¹.

B4: TNC A2-targeted 2B10-based IgG-IL-10 immunoconjugate with monomeric IL-10 (IL-10M1) (other)
heavy 1: EIVLTQSPGTLSLSPGERATLSCRASQSVSRSYLAWYQQKPGQAPRLLIIGASTRATGIPDRFSGSGSGTDFTLTISRLEPEDFAVYYCQQGQVIPPTFGQGTKVEIKRTVAAPSVFIFPPSDEQLKSGTASVVCLLNNFYPREAKVQWKVDNALQSGNSQESVTEQDSKDSTYSLSSTLTLSKADYEKHKVYACEVTHQGLSSPVTKSFNRGEC
heavy 2: EIVLTQSPGTLSLSPGERATLSCRASQSVSSSYLAWYQQKPGQAPRLLIYGASSRATGIPDRFSGSGSGTDFTLTISRLEPEDFAVYYCQQGQYTPPTFGQGTKVEIKRTVAAPSVFIFPPSDEQLKSGTASVVCLLNNFYPREAKVQWKVDNALQSGNSQESVTEQDSKDSTYSLSSTLTLSKADYEKHKVYACEVTHQGLSSPVTKSFNRGEC
light: EIVLTQSPGTLSLSPGERATLSCRASQSVSSNYLAWYQQKPGQAPRLLIYGAYIRATGIPDRFSGSGSGTDFTLTISRLEPEDFAVYYCQQGQVIPPTFGQGTKVEIKRTVAAPSVFIFPPSDEQLKSGTASVVCLLNNFYPREAKVQWKVDNALQSGNSQESVTEQDSKDSTYSLSSTLTLSKADYEKHKVYACEVTHQGLSSPVTKSFNRGEC
notes: P329G LALA in the Fc; also called 2B10 IgG-IL-10M1; TNCA2 2B10 IgG-IL-10M1
In the case of B4, the Kd [3] is reported as 0.052 nM, the koff [3] is reported as 9.35e-05 s⁻¹ and the kon [3] is reported as 1.8e+06 M⁻¹ s⁻¹.
